Data from US20220041697A1 (NEW YORK UNIVERSITY, published 2022).

Legend:
Test in all cases: binding of antibody dilutions to peptides (FIG. 1)
[1] = biological target: T1, Peptide Tau 386-408[phospho-serine396,404] (phosphoserine at positions 11 and 19 of SEQ ID NO: 1 (Ser396 and Ser404 of SEQ ID NO: 25))
T1 construct: For immunisation it was conjugated to KLH via a cysteine residue; also called P-Ser396, P-Ser404; diphosphorylated peptide

[2] = biological target: T2, Tau 386-408 peptide phosphorylated only on serine 404 (phosphoserine at position 19 of SEQ ID NO: 1 (Ser404 of SEQ ID NO: 25); serine 11 not phosphorylated)
T2 construct: also called P-Ser404; P-Ser404 peptide
T2 sequence (peptide, as listed by the source): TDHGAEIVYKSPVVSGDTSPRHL

[3] = biological target: T3, non-phosphorylated Tau peptide (Tau386-408) (none (serines 11 and 19 of SEQ ID NO: 1 not phosphorylated))
T3 construct: also called No-P; non-phosphorylated peptide

binding result [1]: binds | binding result [2]: binds | binding result [3]: binds
B1: Tau mAb 8B2D1 (antibody, V domains shown)
VH: EVQLQQSGPELVKPGASVKMSCKASGYTFTSYVIHWVKQKPGQGLEWIGYIYPYNDGTIYNEKFKGKATLTSDTSSSTVYMELISLTAEDSAVYWCVRERDNYGVYWGQGTTLTVSS
VL: DVLLTQTPLSLPVSLGDQASISCRSSQSIVHSNGNTYLEWYLQKPGQSPELLIYKVSNRFYGVPDRFSGSGSGTDFTLKISRVEAEDLGVYYCFQDSHIPYTFGGGTRLEIK
notes: Mouse (BALB/c) hybridoma monoclonal antibody; also called monoclonal antibody 8B2D1; anti-Tau 8B2D1 mAb
